Experimental data published in US20110039770A1, “INHIBITORS OF PROTEIN KINASE C ISOFORMS AND USES THEREOF” (PHARMAGAP INC., priority 2005, published 2011).
Each block holds one binder with its values, some of them ahead of it. Where no end group is shown, it is not given here.

Columns and labels:
[1] = biological target: PKC-ζ, purified isoform, Q05513; test: cell-based or functional assay
[2] = biological target: PKC-δ, purified isoform, Q05655; test: cell-based or functional assay
[3] = biological target: PKC-ζ, purified isoform (UniProt Q05513); test: competition ELISA on coated purified PKC-ζ vs anti-PKC ζ antibody; PRE 200 µM
PKC-ζ, purified isoform, sequence (Q05513 whole entry, canonical isoform): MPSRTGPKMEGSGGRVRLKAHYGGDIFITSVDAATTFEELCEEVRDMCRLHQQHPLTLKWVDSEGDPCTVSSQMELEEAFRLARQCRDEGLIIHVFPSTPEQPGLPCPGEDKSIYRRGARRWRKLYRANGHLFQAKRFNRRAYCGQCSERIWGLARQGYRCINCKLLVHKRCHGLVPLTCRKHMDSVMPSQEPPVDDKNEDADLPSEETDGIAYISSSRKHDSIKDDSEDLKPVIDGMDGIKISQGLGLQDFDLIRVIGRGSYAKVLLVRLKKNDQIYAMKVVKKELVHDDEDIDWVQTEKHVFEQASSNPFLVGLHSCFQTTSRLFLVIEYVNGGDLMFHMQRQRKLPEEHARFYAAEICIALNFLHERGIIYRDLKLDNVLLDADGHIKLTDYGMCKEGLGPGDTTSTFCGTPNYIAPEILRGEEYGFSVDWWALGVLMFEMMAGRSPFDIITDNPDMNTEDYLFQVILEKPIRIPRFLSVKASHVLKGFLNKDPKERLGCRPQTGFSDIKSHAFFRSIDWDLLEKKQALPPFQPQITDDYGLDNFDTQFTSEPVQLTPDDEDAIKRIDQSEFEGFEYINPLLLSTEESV

[4] = biological target: PKC-ζ, purified isoform (UniProt Q05513); test: competition ELISA on coated purified PKC-ζ vs anti-PKC ζ antibody; PRE 50 µM
[5] = biological target: PKC-ζ, purified isoform (UniProt Q05513); test: competition ELISA on coated purified PKC-ζ vs anti-PKC ζ antibody; PRE 100 µM
[6] = biological target: PKC-β (endogenous, IMR-32 lysate) (human) (UniProt P05771); test: WB competition Protocol A, IMR-32 lysate, vs anti-PKC-β Ab; 600 µg peptide
PKC-β (endogenous, IMR-32 lysate) (human), sequence (P05771 2-671): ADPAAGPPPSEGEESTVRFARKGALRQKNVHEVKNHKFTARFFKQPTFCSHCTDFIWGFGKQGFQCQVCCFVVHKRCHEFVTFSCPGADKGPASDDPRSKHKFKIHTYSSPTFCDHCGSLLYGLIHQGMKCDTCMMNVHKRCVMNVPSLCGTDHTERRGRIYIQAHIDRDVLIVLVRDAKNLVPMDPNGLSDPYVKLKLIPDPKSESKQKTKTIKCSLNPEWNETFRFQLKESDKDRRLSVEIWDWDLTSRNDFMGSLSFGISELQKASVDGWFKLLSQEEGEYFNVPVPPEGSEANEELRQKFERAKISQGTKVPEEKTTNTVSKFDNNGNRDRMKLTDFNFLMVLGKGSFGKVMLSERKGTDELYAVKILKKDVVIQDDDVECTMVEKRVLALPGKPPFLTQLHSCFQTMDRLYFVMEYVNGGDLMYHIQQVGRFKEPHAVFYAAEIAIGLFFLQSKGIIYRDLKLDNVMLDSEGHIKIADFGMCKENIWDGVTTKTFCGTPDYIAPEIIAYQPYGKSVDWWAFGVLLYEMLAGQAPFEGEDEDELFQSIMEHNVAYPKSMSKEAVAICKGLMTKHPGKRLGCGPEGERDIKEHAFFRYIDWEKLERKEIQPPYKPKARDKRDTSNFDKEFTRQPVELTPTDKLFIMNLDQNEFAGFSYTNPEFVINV

[7] = biological target: PKC-β (endogenous, IMR-32 lysate) (human) (UniProt P05771); test: WB competition Protocol A, IMR-32 lysate, vs anti-PKC-β Ab; 75 µg peptide
[8] = biological target: PKC-β (endogenous, IMR-32 lysate) (human) (UniProt P05771); test: WB competition Protocol B, IMR-32 extract, vs anti-PKC-β Ab; 300 µg peptide
[9] = biological target: PKC-β (endogenous, IMR-32 lysate) (human) (UniProt P05771); test: WB competition Protocol A, IMR-32 lysate, vs anti-PKC-β Ab; 300 µg peptide
[10] = biological target: PKC-β (endogenous, IMR-32 lysate) (human) (UniProt P05771); test: WB competition Protocol B, IMR-32 extract, vs anti-PKC-β Ab; 100 µg peptide
[11] = biological target: PKC-β (endogenous, IMR-32 lysate) (human) (UniProt P05771); test: WB competition Protocol B, IMR-32 extract, vs anti-PKC-β Ab; 200 µg peptide
[12] = biological target: PKC-δ, Q05655; test: cell-based or functional assay
PKC-δ, Q05655, sequence (Q05655 whole entry, stated change not applied, canonical isoform): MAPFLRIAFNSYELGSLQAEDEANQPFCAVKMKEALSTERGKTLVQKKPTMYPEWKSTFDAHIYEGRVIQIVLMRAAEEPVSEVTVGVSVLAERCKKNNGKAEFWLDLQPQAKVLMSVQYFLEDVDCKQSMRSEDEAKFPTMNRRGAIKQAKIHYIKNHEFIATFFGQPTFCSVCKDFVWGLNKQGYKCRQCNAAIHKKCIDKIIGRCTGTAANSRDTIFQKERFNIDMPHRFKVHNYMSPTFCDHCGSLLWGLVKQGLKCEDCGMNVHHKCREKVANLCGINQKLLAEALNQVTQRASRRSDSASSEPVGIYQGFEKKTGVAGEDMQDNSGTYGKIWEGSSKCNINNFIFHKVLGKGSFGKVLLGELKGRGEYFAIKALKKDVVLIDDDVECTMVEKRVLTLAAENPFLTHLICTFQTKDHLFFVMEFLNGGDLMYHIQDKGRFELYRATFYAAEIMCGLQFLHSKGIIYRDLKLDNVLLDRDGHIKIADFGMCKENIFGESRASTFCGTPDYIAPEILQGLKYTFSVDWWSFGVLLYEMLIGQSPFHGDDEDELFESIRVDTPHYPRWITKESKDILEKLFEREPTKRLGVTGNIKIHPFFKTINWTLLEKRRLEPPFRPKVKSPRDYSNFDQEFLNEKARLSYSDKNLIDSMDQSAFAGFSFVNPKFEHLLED

[13] = biological target: PKC-βI (purified isoform) (Homo sapiens (Human)), P05771; test: competitive ELISA, coated purified PKC-βI, vs anti-PKC βI (SC-209); PRE 50 µM; details: remark: other sources report otherwise
PKC-βI (purified isoform) (Homo sapiens (Human)), P05771, sequence (P05771 2-671 limits assumed): as the sequence (P05771 2-671) above

[14] = biological target: PKC-βI (purified isoform) (Homo sapiens (Human)), P05771; test: competitive ELISA, coated purified PKC-βI, vs anti-PKC βI (SC-209); PRE 100 µM; details: remark: other sources report otherwise
[15] = biological target: PKC-βI (purified isoform) (Homo sapiens (Human)), P05771; test: competitive ELISA, coated purified PKC-βI, vs anti-PKC βI (SC-209); PRE 200 µM; details: remark: other sources report otherwise
[16] = biological target: PKC-βI (purified isoform) (Homo sapiens (Human)) (UniProt P05771); test: as above
PKC-βI (purified isoform) (Homo sapiens (Human)), sequence (P05771 2-671 limits assumed): as the sequence (P05771 2-671) above

[17] = biological target: PKC-βI (purified isoform) (Homo sapiens (Human)) (UniProt P05771); test: competitive ELISA, coated purified PKC-βI, vs anti-PKC βI (SC-209); PRE 50 µM
[18] = biological target: PKC-βI (purified isoform) (Homo sapiens (Human)) (UniProt P05771); test: competitive ELISA, coated purified PKC-βI, vs anti-PKC βI (SC-209); PRE 100 µM

PKC-δ, purified isoform, Q05655, sequence (Q05655 whole entry, stated change not applied, canonical isoform): as the sequence (Q05655 whole entry, stated change not applied, canonical isoform) above
PKC-ζ, purified isoform, Q05513, sequence (Q05513 whole entry, canonical isoform): as the sequence (Q05513 whole entry, canonical isoform) above

% Inhibition of PKC activity at 150 µM [1]: 60% | % Inhibition of PKC activity at 300 µM [1]: 60% | % Inhibition of PKC activity at 600 µM [1]: 58% | % Inhibition of PKC activity at 150 µM [2]: 90% | % Inhibition of PKC activity at 300 µM [2]: 90% | % Inhibition of PKC activity at 600 µM [2]: 95%
Binder: FRRCFRL [compound PKI 4]

% Inhibition of PKC activity at 150 µM [1]: 37% | % Inhibition of PKC activity at 300 µM [1]: 40% | % Inhibition of PKC activity at 600 µM [1]: 56% | % Inhibition of PKC activity at 150 µM [2]: 32% | % Inhibition of PKC activity at 300 µM [2]: 41% | % Inhibition of PKC activity at 600 µM [2]: 70%
Binder: FRRK(adenine PNA)FRL [compound PKI 3]

relative binding capacity [3]: 0.33% | relative binding capacity [4]: 4.2% | relative binding capacity [5]: 8.77%
Binder: Ac-KDAQNLI-NH2 [PRE 12]

relative binding capacity [3]: 4.29% | relative binding capacity [4]: 0% | relative binding capacity [5]: 0%
Binder: Ac-RDAQNLI-NH2 [PRE 13]

Band Intensity [6]: 1.85 | Inhibition (%) [6]: 0% | Relative Intensity (%) [6]: 99.6% | Band Intensity [7]: 1.9 | Inhibition (%) [7]: 0% | Relative Intensity (%) [7]: 102% | Band Intensity [8]: 0 | Inhibition (%) [8]: 100% | Relative Intensity (%) [8]: 0% | Band Intensity [9]: 1.9 | Inhibition (%) [9]: 0% | Relative Intensity (%) [9]: 102% | Band Intensity [10]: 0 | Inhibition (%) [10]: 100% | Relative Intensity (%) [10]: 0% | relative binding capacity [3]: 29.1% | Band Intensity [11]: 0 | Inhibition (%) [11]: 100% | Relative Intensity (%) [11]: 0% | relative binding capacity [4]: 14% | relative binding capacity [5]: 23.9%
Binder: Ac-AKGIQEVKGGDAQNLIGISI-NH2 [PRE 3]

relative binding capacity [3]: 5.85% | relative binding capacity [4]: 0% | relative binding capacity [5]: 0%
Binder: Ac-KDAQNLIGISI-NH2 [PRE 4]

% Inhibition of kinase activity (Kinase-Glo), compound at 5.0 µM [12]: 56.3% | % Inhibition of kinase activity (Kinase-Glo), compound at 30.0 µM [12]: 85.1%
Binder: Ac-FRRCFRLGGGGGGGAKGIQEVKGGDAQNLIGISI-NH2 [Compound TIM 18 (PRE 3 and PKI 4)]

% Inhibition of kinase activity (Kinase-Glo), compound at 5.0 µM [12]: 46% | % Inhibition of kinase activity (Kinase-Glo), compound at 30.0 µM [12]: 45.4%
Binder: Ac-FRRCFRLGGGGGGGRRKKGGKDFVVKR-NH2 [Compound TIM 20 (PRE 1 and PKI 4)]

Band Intensity [7]: 0.8 | Inhibition (%) [7]: 31% | Relative Intensity (%) [7]: 69% | Band Intensity [8]: 0 | Inhibition (%) [8]: 100% | Relative Intensity (%) [8]: 0% | Band Intensity [9]: 0.403 | Inhibition (%) [9]: 65.3% | Relative Intensity (%) [9]: 34.7% | Band Intensity [10]: 0.0322 | Inhibition (%) [10]: 54.7% | Relative Intensity (%) [10]: 45.3% | Band Intensity [11]: 0 | Inhibition (%) [11]: 100% | Relative Intensity (%) [11]: 0%
Binder: KDAQNLIGISL-NH2 [PRE 2]

relative binding capacity [3]: 0% | relative binding capacity [4]: 0% | relative binding capacity [5]: 0%
Binder: Ac-KDANQLIGISI-NH2 [PRE 6]

Band Intensity [7]: 0.825 | Inhibition (%) [7]: 28.9% | Relative Intensity (%) [7]: 71.1% | Band Intensity [9]: 0.528 | Inhibition (%) [9]: 54.5% | Relative Intensity (%) [9]: 45.5%
Binder: RRKKGGKDFVVKR [PRE 1]

relative binding capacity [3]: 0% | relative binding capacity [4]: 0% | relative binding capacity [5]: 0%
Binder: Ac-RDAQNLIGISI-NH2 [PRE 11]

relative binding capacity (100-%n, DMSO subtracted) [13]: 0% | relative binding capacity (100-%n, DMSO subtracted) [14]: 0% | relative binding capacity (100-%n, DMSO subtracted) [15]: 0%
Binder: ILEDKGGDAQNLIGISI [PRE 8]

relative binding capacity (100-%n, DMSO subtracted) [16]: 0% | relative binding capacity (100-%n, DMSO subtracted) [17]: 2.1% | relative binding capacity [3]: 1.54% | relative binding capacity [4]: 1.83% | relative binding capacity (100-%n, DMSO subtracted) [18]: 0% | relative binding capacity [5]: 0%
Binder: Ac-ISIGILQNADK-NH2 [PRE 7]

relative binding capacity [3]: 0% | relative binding capacity [4]: 0% | relative binding capacity [5]: 0%
Binder: Ac-ISIGILNQADK-NH2 [PRE 10]

relative binding capacity [3]: 0% | relative binding capacity [4]: 0% | relative binding capacity [5]: 0%
Binder: Ac-AKGIQEVKGGKDAQNLIGISI-NH2 [PRE 5]
